From the DeepSol protein solubility set

Assay: soluble on expression in E. coli; label from the status in PepcDB or PDB records

Soluble on expression in E. coli, not soluble:
MGSDKIHHHHHHMKNTEIRKNIFPVGFYDDIHPDFSVNFQMNRCYTMTNDDVMLKEMREISPSIHNYEEFIEKFLELYNKALNEGHKLRAAYYLRTAEFYMTADHPQKQNYRKQFISLMQEYFNISDEQPYKVPYENGFLPAYRFTSEAPKGTIVMFGGFDSYVEEMFKMALFLKEAGYDVVFFDGPGQGSALEDYKIPMTHEWEKPVKSILDYFELDDVTLLGISLGGYLTVRAAAFEKRVHRVIADDILSNFYEVVLNTLPSQLKEKVNSLMSDGNEQEVNILFKDLMKKSLMVEWAINQGMHITGSKTPYEFLNKILLYNTSKISEKLEQDVLLMAAQEDHYIPLNQFFDQSKSLINVRSLTTRMFTRKETAQNHCQSGNLGLAFEVIANWIEQIQK, MAEHDITPEVTISKTQRRYKVGYVRARHQDRKTGIARYYSQHPSLHLKGDWLKEAGFDTGRGVTVKISEGGLTIIADSDEVQELRDGMFSVLNES, TVTSASDQTTTFIQTISPTAIEISKTYDLYASVLLAQAILESSSGQSDLSKAPNYNLFGIKGEYKGKSVQMPTLEDDGKGNMTQIQAPFRAYPNYSASLYDYAELVSSQKYASVWKSNTSSYKDATAALTGLYATDTAYASKLNQIIETYSL, MKQCAHTKVWQTIVAEAREQAEQEPMLASFYHATIIKHDSLKAALSYILANRLNTASMPAMAVREVIEEAFAADPSISEAAACDICATVNRDPAVSMYSMPLLYLKGYHALQGYRVANWLWRQGRKALATYFQNQISVACQVDIHPAARIGRGIMLDHATGIVIGETAVVEDDVSILQDVTLGGTGKECGDRHPKIREGVMIGAGAKILGNIEVGEGAKIGSGSVVLQAVPPHTTVAGVPARIVGRPQSDKPSLDMDQQFNGRSQTFIGGDGI, MGHHHHHHSHMAIPITVLDCDLLLYGRGHRTLDRFKLDDVTDEYLMSMYGFPRQFIYYLVELLGANLSRPTQRSRAISPETQVLAALGFYTSGSFQTRMGDAIGISQASMSRCVANVTEALVERASQFIRFPADEASIQALKDEFYGLAGMPGVMGVVDCIHVAIKAPNAEDLSYVNRKGLHSLNCLMVCDIRGTLMTVETNWPGSLQDCAVLQQSSLSSQFEAGMHKDSWLLGDSSFFLRTWLMTPLHIPETPAEYRYNMAHSATHSVIEKTFRTLCSRFRCLDGSKGALQYSPEKSSHIILACCVLHNISLEHGMDVWSSPMTGPMEQPPEEEYEHMESLDLEADRIRQELMLTHFS, AHHHHHHGSKKFRFFVSGMPGVGKTTLAKRIADEIKREGFKVGGIITQEIRSGARRSGFRVIALDTGEIGRLAYVGQGYPRLGRYVIDVESFEKVAIPAISRALREGDLIVIDEIGPMEFKSNEFLKALGLVLRSEKPLLATVHRRFVERYRPLGEYYWLTPENREAVFSEILVKIKELLRENENAGNKAQD, MSWRYSILTVDGSFKIFIPWEIFLTWNFLSAAWLNSTESNTYIHYSTCWGTSDYTLNISVIEATTEKLVDTRLLTTLENATAWINSNSIDEDEDDMPHATNVADRLDGLSLSKRVYSICHYEF, MSSYEMFADKNIVAGELANLMASAGWGTEGDYDATAIEKSLSAYPMIAYCRDSDGLLVGYISAFTDGAFSTFVGELVVRPTYQQRGIGSALLAMIVEKCRGVPVYATPFQGTEKFFLDRGFRVPERPMSVVSMRNVT, MGSDKIHHHHHHMRVASERLILGDRITESLFLHTDIPIVEAGKKIGADELRRIKRFLIKEVDIEKRPEGMSEASMMDQELDDMIEDSIFDSLIETYNQVFTSWEQGLVPNVYDALRWVKESMPETMRRDDILPYFLERGTEAYTVRHAIYRGAIAQLLAEAAGKERKMIHDLWVASYFADCGLARIMEWRHTKRYEAMQQEIFHRHPAMAFQALQKENIISDTVKRLIVQHHERLDGSGYPLKVKGDKIMDHTRLFIVADVFAAMTSWRPYREAYKVYDAYCHLKARPMQYDSKYVMLLGQLLLPIEPGDRVLMSNGKIATVLRKNSIFDRPVIAYEEHNRRIVKDLMEDRQLNIIQLMD, MGSDKIHHHHHHMSDIPYQTIDTRALHRFAQPDRIAPAMYHDPALFEAELDRIFYRTWIWVAHDSELPNPGDFITTTIGRQPVIVVRDKTGEINVLQNRCRHRGATVCESHKGNAKGFTCPYHSWSYALDGTLRALPYGDGYEGVCEKGDLPLVKLRVGVYQGLIFASFNDDIEPLEDFLGGAKPWIDLFMKQGAGYPIKANGEHKFKFKGNWKIQLENTTDLYHFPVVHKSWMKSIDDETAAAITSFMTSEHAFCRALGNGHSLAVLMPELIDLDEDDGAPLPERFAPLAATLAERHAPDEVRRIVRSLLGVGFNLNLFPNLALSMAFFRVLRPISANETEIRHVALAMDGGPDEANRERLRIHEHFQGPFGFGSPDDAEAWERVQRGAHAGPDVPILVNRGLNRETTAANGEKTAHATDETGMREAYQQWRKLMEQA, MKEFIIKANKAVTNGEINLKDLPGSSGRLDLLCRCVNSAFFLSHDMRRDTIFYSVNYGSPNPPVALKFVGSELKRVSPDERSIALFIKKALEKDASELWKESTSGIYSSKREFRDIILEKKNEGKRIFYLHLNGKPLEDFEFKNQDDEDFLFVLGDHIGIGDEDEEFLEEIGAEKISLSPLELHADHCIILVHNILDRLK, MSLRSPLEPGAPDALLTVIVIVEHLDHKEEVIVQGREIVPSMDGHFDTIQELNSRFTESAPREKIEIGNRERPFKLHVVNVGDSRAMLVTGESYAALTRDHVPDDPGEWRRIEETGDQVVYSDGCARIRGLAMSRSFGDFVAKEVRTPSPITAKPDIRRFYATWNDVLLLYSDGLHVDGEDWRTNFGMAKQCISSVPKISDVAVCLLQQAYGGGSSDNITVLATKFRKFRRQTSAKLRIFGGLAKSFSEEGHHHHHH, GPGSMIAILFGFTLGTAVGACNRAHYSSYGSSVYIAPLPSNSHNSLAFMDIARYRAGLFTTHQSVCGRVVIELFDSISPVSTTNFRGLCQGKHGTSGTGHKLCYSGTRLLPNECFIRGGDVTFGSAAGGWSIYGRSFREMAKGSSSSSRSSDVKGKGLVYAVGANAQWGSEFLITVDGFTPGEDHILLGQVVEGYDVLQRLQQQSLLPHAKRFIHYRILKAGVLKEAETPNYGKGSAFLRF, MYPIKIIYVYKAMLDKVIDKAGGVLTEAYGDVVKPVLKPIGEVLGFLPRSIKCLLQGWEKWIINGEESIRLTSEAIRKKIEATPAERLTEPEPYVVVPAIQQLGYSHSSEELRELYANLIVSSMDVEKKGLVHPAFVDILKKLTPDEAKIIQYFKGRDFIEYLDLRAYIKEEEGGGFRTIADHKTLLSDEVNFFMPDNELAYLQNLVCLGILKDCEGTFTVIEDNYKLIENKLGLESLRNQYVPEQFSSIRSEKSFYQVTDFGRNFINTVTE, MDKDLQSIQEVRDLLAAASKAFEEYSQFSQSQIDEIVKEICEEAQKHEVELAKLANEETGFGRWEDKVLKNRLASVGVYETIKDLKTRGIINDDKEKRITEIGVPMGIIAALIPSTNPTSTTIYKIMISLKAGNAVIVSPHPNAKDSILKTAEYLIRAAERKGAPKGLIGVIKTPTLQATQELMKHKKTSLILATGGEAMVKAAYSSGTPAIGVGPGNGPSFIERSADIRKAVKRIIDSKTFDNGVICASEQSIVTEEVIKHQVADELKRQGAYFLNKDEREKVGKILMRANNTMNPKIVGKTALYVAAMAGITVPVTTKVLISEETEVSHFNPYSREKLCPVLGFYTEETWEKACEKCIEILQNEGIGHTMSMHTNNENIIREFSLKKPVSRLLVNTPAALGGVGATTNLIPAFTLGCGTVGGSATSDNIGPLNLINIRRVAYGTKELEELKNEGVCTCACELNTDTSNSKVSENDIESIIRQVLDGIYKK, MLKKMGEAVARVARKVNETVESGSDTLDLAECKLVSFPIGIYKVLRNVSGQIHLITLANNELKSLTSKFMTTFSQLRELHLEGNFLHRLPSEVSALQHLKAIDLSRNQFQDFPEQLTALPALETINLEENEIVDVPVEKLAAMPALRSINLRFNPLNAEVRVIAPPLIKFDMLMSPEGARAPLP
